Reference: PMC10057929, “Improvement of Laccase Production by Thielavia terrestris Co3Bag1. Enhancing the Bio-Catalytic Performance of the Native Thermophilic TtLacA via Immobilization in Copper Alginate Gel Beads” (Journal of Fungi, 2023)

Substrate: CCn1c(=NN=c2sc3cc(S(=O)(=O)O)ccc3n2CC)sc2cc(S(=O)(=O)O)ccc21
Test: purified protein
Assay type: biochemical, Thermothielavioides terrestris
Conditions: free enzyme, pH 3.0 glycine-HCl, 65 °C, 5 min, 0.05 to 5 mM ABTS

B1: TtLacA (Thermothielavioides terrestris NRRL 8126) (protein)
chain: MGLLRGLLESVSETLELFYTATATLTQESTNGLSLLGTLLARVLPLFLTNNPLPDGFPWGSLSDTNTNPYVDYPRTGVVRYYDFTVSRGIIAPDGYQRDVLLVNGAYPGPLIEANWGDTIVVTVHNNISNPEDGTTIHWHGFLQRETPWADGAPGISQCPIPPGSSYTYEFVASLFGTSWYHAHYSAQYAGGVVGPIVVYGPTHAKYDVDLGPIMLSDWYHREYFDIVKELLSPNASPRVLSDNNLIDGKMNFDCSTVAPGDNTPCTDRAGISKFKFQTGKTHRLRLINSGADGVQRFSIDQHTLTVIAEDFVPVKPYNTTVVTLGVGQRTDVLVTANAGPPDSLFWMRSNLTTCSPARQPNALAAVYYDKADTSATPSSRPWDVPDPGTCANDPLDISEPLYPIPLPKPAITQTMDIELFKNASNVTLWKFNGVSMRTDYNSPVILLANQGNFSYPPEWNVVNYQQTTAIRIIINNKGPGPHPMHLHGHNFYILHEGPGEWDGTIVRPSNPMRRDVELVRGNGHLVIQFDGAPGVWAFHCHIAWHSSGGFLASLLVQPHKVQQMHLPGDVEQNCRAWDLWTKHNVVDQIDSGT
notes: native secreted enzyme purified from culture supernatant, free (not immobilised); 70 kDa by SDS-PAGE; MS/MS peptides QPNALAAVYYDK, YDVDLGPIMLSDWYHR, VLSDNNLIDGK, LINSGADGVQR
With B1 the Km was 260 µM and the kcat was 13.73 s⁻¹.
